Patent US20140072983A1

How the values were obtained:
[1] = molecular target: biotin-CCR4 peptide conjugate (human); test: ECL (MSD) bridging assay, biotin-CCR4 peptide on a streptavidin plate, His-CD16a detection; 0% PHS (assay buffer)
[2] = molecular target: biotin-CCR4 peptide conjugate (human); test: ECL (MSD) bridging assay, biotin-CCR4 peptide on a streptavidin plate, His-CD16a detection; 5% pooled human serum
[3] = molecular target: biotin-CCR4 peptide conjugate (human); test: ECL (MSD) bridging assay, biotin-CCR4 peptide on a streptavidin plate, His-CD16a detection; 20% pooled human serum

Measured: EC50 (read off the curve)

biotin-CCR4 peptide conjugate (human), sequence (peptide, as listed by the source): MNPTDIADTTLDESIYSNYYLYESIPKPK

KW-0761 (antibody)
0.4 µg/mL: all assays above
